{"source": "paper PMC7763993", "about": "“Depletion of Boric Acid and Cobalt from Cultivation Media: Impact on Recombinant Protein Production with Komagataella phaffii” (Bioengineering, 2020)", "substrate": "CCn1c(=NN=c2sc3cc(S(=O)(=O)O)ccc3n2CC)sc2cc(S(=O)(=O)O)ccc21", "assay": "purified protein", "type": "biochemical, Armoracia rusticana", "settings": "H2O2 co-substrate, 50 mM phosphate citrate pH 5, 30 °C, 0.05-7 mM ABTS, enzyme from cultivation F5 (glass, with Co and boric acid)"}
{"protein": "horseradish peroxidase isoenzyme A2A (HRP) (Armoracia rusticana) (protein, secreted from K. phaffii BSYBG11 MutS, codon-optimized gene; glycosylated, negative AIEX flow-through; monomeric, 2 calcium, heme) QLNATFYSGTCPNASAIVRSTIQQAFQSDTRIGASLIRLHFHDCFVDGCDASILLDDSGSIQSEKNAGPNANSARGFNVVDNIKTALENTCPGVVSCSDILALASEASVSLTGGPSWTVLLGRRDSLTANLAGANSAIPSPFEGLSNITSKFSAVGLNTNDLVALSGAHTFGRARCGVFNNRLFNFSGTNGPDPTLNSTLLSSLQQLCPQNGSASTITNLDLSTPDAFDNNYFANLQSNNGLLQSDQELFSTLGSATIAVVTSFASNQTLFFQAFAQSMINMGNISPLTGSNGEIRLDCKKVDGS", "values": [{"measurement": "Km", "value": "2110 ± 350", "unit": "µM"}]}
